Test results as given in patent US20110287512.

Key:
[1] = test system: ZFN7263 linker TPNRCPPTKP (synthetic); assay: cell_activity; conditions: yeast, partner ZFN7264; host on 0-bp gap = 1.00
[2] = test system: ZFN7263 linker TGGGGSQKP (synthetic); assay: cell_activity; conditions: yeast, partner ZFN7264; host on 0-bp gap = 1.00
[3] = test system: ZFN7263 linker TYPRPLLAKP (synthetic); assay: cell_activity; conditions: yeast, partner ZFN7264; host on 0-bp gap = 1.00
[4] = test system: ZFN7263 linker TPLCQRPMKQKP (synthetic); assay: cell_activity; conditions: yeast, partner ZFN7264; host on 0-bp gap = 1.00
[5] = test system: ZFN7263 linker TQRPQIPPKP (synthetic); assay: cell_activity; conditions: yeast, partner ZFN7264; host on 0-bp gap = 1.00
[6] = test system: ZFN7263 (host, center linker TGSQKP) (synthetic); assay: cell_activity; conditions: yeast, partner ZFN7264; host on 0-bp gap = 1.00
[7] = test system: ZFN7263 linker TPRPPIPKP (synthetic); assay: cell_activity; conditions: yeast, partner ZFN7264; host on 0-bp gap = 1.00
[8] = test system: ZFN7264 linker TGGGGSQKP (synthetic); assay: cell_activity; conditions: yeast, partner ZFN7263; host on 0-bp gap = 1.00
[9] = test system: ZFN7264 (host, center linker TGSQKP) (synthetic); assay: cell_activity; conditions: yeast, partner ZFN7263; host on 0-bp gap = 1.00; host data same as Table 9
[10] = test system: ZFN7264 linker TSRPRPKP (synthetic); assay: cell_activity; conditions: yeast, partner ZFN7263; host on 0-bp gap = 1.00
[11] = test system: ZFN7264 linker 1e (synthetic); assay: cell_activity; conditions: yeast, partner ZFN7263; host on 0-bp gap = 1.00
[12] = test system: ZFN7264 linker TGLPKPKP (synthetic); assay: cell_activity; conditions: yeast, partner ZFN7263; host on 0-bp gap = 1.00
[13] = test system: ZFP8196 linker TEPRAKPPKP (artificial)
[14] = test system: ZFP8196 linker TGYSIPRPKP (artificial)
[15] = test system: ZFP8196 linker LRQKDERP (artificial)
[16] = test system: ZFP8196 linker TCPRPPTRKP (artificial)
[17] = test system: ZFP8196 linker TVSPAPCRSKP (artificial)
[18] = test system: ZFP8196 linker TPDAPKPKP (artificial)
[19] = test system: ZFP8196 linker TSPRLPAPKP (artificial)
[20] = test system: ZFP8196 linker TGEGGKP (artificial)
[21] = test system: ZFP8196 linker TGGGGSQKP (artificial)
[22] = test system: ZFP8196 linker 1f (artificial)
[23] = test system: ZFP8196 linker TPSHTPRPKP (artificial)
[24] = test system: ZFP8196 linker 1d (artificial)
[25] = test system: ZFP8196 linker 1c (artificial)
[26] = test system: ZFP8196 (host, center linker TGEKP) (artificial)
[27] = test system: ZFP8196 linker TPGLHRPKP (artificial)
[28] = test system: ZFP8196 linker TSSPRSNAKP (artificial)
[29] = test system: ZFP8196 linker TPDRPISTCKP (artificial)

Row | Sequence | activity (normalized MEL-1) [1] | activity (normalized MEL-1) [2] | activity (normalized MEL-1) [3] | activity (normalized MEL-1) [4] | activity (normalized MEL-1) [5] | activity (normalized MEL-1) [6] | activity (normalized MEL-1) [7] | activity (normalized MEL-1) [8] | activity (normalized MEL-1) [9] | activity (normalized MEL-1) [10] | activity (normalized MEL-1) [11] | activity (normalized MEL-1) [12] | binding signal (normalized ELISA) [13] | binding signal (normalized ELISA) [14] | binding signal (normalized ELISA) [15] | binding signal (normalized ELISA) [16] | binding signal (normalized ELISA) [17] | binding signal (normalized ELISA) [18] | binding signal (normalized ELISA) [19] | binding signal (normalized ELISA) [20] | other results
1 | ACTCTGATTGGAAG (double strand) [7263 yeast half-site gap AT] | 0.03 | 0.02 | 0.05 | 0.01 | 0.02 | 0.02 | 0.03 |  |  |  |  |  |  |  |  |  |  |  |  |  | 
2 | AAAGCGTAGCTCCG (double strand) [7264 yeast half-site gap TA] |  |  |  |  |  |  |  | 0.09 | 0.02 | 0.07 | 0.09 | 0.08 |  |  |  |  |  |  |  |  | 
3 | AAAGCGCTGCTCCG (double strand) [7264 yeast half-site gap CT] |  |  |  |  |  |  |  | 0.15 | 0.08 | 0.1 | 0.11 | 0.09 |  |  |  |  |  |  |  |  | 
4 | ACTCTGCTTGGAAG (double strand) [7263 yeast half-site gap CT] | 0.06 | 0.04 | 0.05 | 0.03 | 0.03 | 0.08 | 0.04 |  |  |  |  |  |  |  |  |  |  |  |  |  | 
5 | TTAGATAAACTGACCAAAAGGCTATC (double strand) [8196 target gap AC] |  |  |  |  |  |  |  |  |  |  |  |  | 0.01 | 0 | 0 | 0 | 0 | 0 | 0 | 0 | binding signal (normalized ELISA) [21]: 0; binding signal (normalized ELISA) [22]: 0; binding signal (normalized ELISA) [23]: 0.01; binding signal (normalized ELISA) [24]: 0.01; binding signal (normalized ELISA) [25]: 0; binding signal (normalized ELISA) [26]: 0; binding signal (normalized ELISA) [27]: 0; binding signal (normalized ELISA) [28]: 0; binding signal (normalized ELISA) [29]: 0.01
6 | TTAGATAAACTGTGCAAAAGGCTATC (double strand) [8196 target gap TG] |  |  |  |  |  |  |  |  |  |  |  |  | 0.01 | 0.01 | 0 | 0.01 | 0.01 | 0.01 | 0.01 | 0 | binding signal (normalized ELISA) [21]: 0; binding signal (normalized ELISA) [22]: 0.01; binding signal (normalized ELISA) [23]: 0.01; binding signal (normalized ELISA) [24]: 0.01; binding signal (normalized ELISA) [25]: 0; binding signal (normalized ELISA) [26]: 0; binding signal (normalized ELISA) [27]: 0.01; binding signal (normalized ELISA) [28]: 0.01; binding signal (normalized ELISA) [29]: 0.02
